In patent US20220089695A1 (NEW YORK UNIVERSITY, published 2022):

How the values were obtained:
[1] = molecular target: SARS-CoV-2 S protein displayed on lentiviral (HIV-GFP) pseudovirus (SARS-CoV-2, UniProt P0DTC2 14-1273); assay: pseudovirus on transfected HEK293T cells on ice, anti-S staining, flow cytometry
[2] = molecular target: Human IgG1 Fc-tagged SARS-CoV-2 Spike (S) recombinant protein (SARS-CoV-2; human, UniProt P0DTC2 16-1213); assay: Fc-tagged protein on receptor-transfected HEK293T cells, CDS imaging
[3] = molecular target: T1, Fc-tagged SARS-CoV-2 S2 subunit (SARS-CoV-2; human, UniProt P0DTC2 686-1213); assay: CDS imaging on HEK293T cells expressing LSECtin, anti-human Fc detection
T1 construct: domain: S2

[4] = molecular target: T2, Human IgG1 Fc-tagged SARS-CoV-2 S receptor-binding domain (SARS-CoV-2; human, UniProt P0DTC2 319-541); assay: Fc-tagged protein on receptor-expressing HEK293T cells (FIG. 13B)
T2 construct: domain: RBD

[5] = molecular target: T1, Fc-tagged SARS-CoV-2 S2 subunit; assay: CDS imaging on HEK293T cells expressing L-SIGN, anti-human Fc detection
[6] = molecular target: T3, Fc-tagged SARS-CoV-2 S N-terminal domain (SARS-CoV-2; human, UniProt P0DTC2 14-305); assay: Fc-tagged S domain on receptor-transfected HEK293T cells, CDS imaging
T3 construct: domain: NTD

[7] = molecular target: T1, Fc-tagged SARS-CoV-2 S2 subunit; assay: CDS imaging on HEK293T cells expressing DC-SIGN, anti-human Fc detection
[8] = molecular target: Recombinant SARS-CoV-2-S1 protein with His tag (SARS-CoV-2, UniProt P0DTC2 16-685)

B1: C-type lectin domain family 10 member A expressed on cells (receptor)
chain: MTRTYENFQYLENKVKVQGFKNGPLPLQSLLQRLCSGPCHLLLSLGLGLLLLVIICVVGFQNSKFQRDLVTLRTDFSNFTSNTVAEIQALTSQGSSLEETIASLKAEVEGFKQERQAGVSELQEHTTQKAHLGHCPHCPSVCVPVHSEMLLRVQQLVQDLKKLTCQVATLNNNASTEGTCCPVNWVEHQDSCYWFSHSGMSWAEAEKYCQLKNAHLVVINSREEQNFVQKYLGSAYTWMGLSDPEGAWKWVDGTDYATGFQNWKPGQPDDWQGHGLGGGEDCAHFHPDGRWNDDVCQRPYHWVCEAGLGQTSQESH
notes: whole, on cells; also called CLEC10A
binding result [1]: binds | binding result [2]: binds

B2: Liver and lymph node sinusoidal endothelial cell C-type lectin expressed on cells (receptor)
chain: MDTTRYSKWGGSSEEVPGGPWGRWVHWSRRPLFLALAVLVTTVLWAVILSILLSKASTERAALLDGHDLLRTNASKQTAALGALKEEVGDCHSCCSGTQAQLQTTRAELGEAQAKLMEQESALRELRERVTQGLAEAGRGREDVRTELFRALEAVRLQNNSCEPCPTSWLSFEGSCYFFSVPKTTWAAAQDHCADASAHLVIVGGLDEQGFLTRNTRGRGYWLGLRAVRHLGKVQGYQWVDGVSLSFSHWNQGEPNDAWGRENCVMMLHTGLWNDAPCDSEKDGWICEKRHNC
notes: whole, on cells; also called LSECtin; CLEC4G
binding result [3]: binds

B3: Tweety Family Member 2 expressed on cells (receptor)
chain: MQAARVDYIAPWWVVWLHSVPHVGLRLQPVNSTFSPGDESYQESLLFLGLVAAVCLGLNLIFLVAYLVCACHCRRDDAVQTKQHHSCCITWTAVVAGLICCAAVGVGFYGNSETNDGAYQLMYSLDDANHTFSGIDALVSGTTQKMKVDLEQHLARLSEIFAARGDYLQTLKFIQQMAGSVVVQLSGLPVWREVTMELTKLSDQTGYVEYYRWLSYLLLFILDLVICLIACLGLAKRSKCLLASMLCCGALSLLLSWASLAADGSAAVATSDFCVAPDTFILNVTEGQISTEVTRYYLYCSQSGSSPFQQTLTTFQRALTTMQIQVAGLLQFAVPLFSTAEEDLLAIQLLLNSSESSLHQLTAMVDCRGLHKDYLDALAGICYDGLQGLLYLGLFSFLAALAFSTMICAGPRAWKHFTTRNRDYDDIDDDDPFNPQAWRMAAHSPPRGQLHSFCSYSSGLGSQTSLQPPAQTISNAPVSEYMNQAMLFGRNPRYENVPLIGRASPPPTYSPSMRATYLSVADEHLRHYGNQFPA
notes: whole, on cells; also called TTYH2; TTHY2
binding result [4]: binds

B4: Liver/lymph node-specific intercellular adhesion molecule-3-grabbing integrin expressed on cells (receptor)
chain: MSDSKEPRVQQLGLLEEDPTTSGIRLFPRDFQFQQIHGHKSSTGCLGHGALVLQLLSFMLLAGVLVAILVQVSKVPSSLSQEQSEQDAIYQNLTQLKAAVGELSEKSKLQEIYQELTQLKAAVGELPEKSKLQEIYQELTRLKAAVGELPEKSKLQEIYQELTRLKAAVGELPEKSKLQEIYQELTRLKAAVGELPEKSKLQEIYQELTELKAAVGELPEKSKLQEIYQELTQLKAAVGELPDQSKQQQIYQELTDLKTAFERLCRHCPKDWTFFQGNCYFMSNSQRNWHDSVTACQEVRAQLVVIKTAEEQNFLQLQTSRSNRFSWMGLSDLNQEGTWQWVDGSPLSPSFQRYWNSGEPNNSGNEDCAEFSGSGWNDNRCDVDNYWICKKPAACFRDE
notes: whole, on cells; also called L-SIGN; CLEC4M
binding result [5]: binds

B5: Asialoglycoprotein Receptor 1 expressed on cells (receptor)
chain: MTKEYQDLQHLDNEESDHHQLRKGPPPPQPLLQRLCSGPRLLLLSLGLSLLLLVVVCVIGSQNSQLQEELRGLRETFSNFTASTEAQVKGLSTQGGNVGRKMKSLESQLEKQQKDLSEDHSSLLLHVKQFVSDLRSLSCQMAALQGNGSERTCCPVNWVEHERSCYWFSRSGKAWADADNYCRLEDAHLVVVTSWEEQKFVQHHIGPVNTWMGLHDQNGPWKWVDGTDYETGFKNWRPEQPDDWYGHGLGGGEDCAHFTDDGRWNDDVCQRPYRWVCETELDKASQEPPLL
notes: whole, on cells; also called ASGR1
binding result [1]: binds | binding result [6]: binds | binding result [2]: binds

B6: Dendritic cell-specific intercellular adhesion molecule-3-grabbing nonintegrin expressed on cells (receptor)
chain: MSDSKEPRLQQLGLLEEEQLRGLGFRQTRGYKSLAGCLGHGPLVLQLLSFTLLAGLLVQVSKVPSSISQEQSRQDAIYQNLTQLKAAVGELSEKSKLQEIYQELTQLKAAVGELPEKSKLQEIYQELTRLKAAVGELPEKSKLQEIYQELTWLKAAVGELPEKSKMQEIYQELTRLKAAVGELPEKSKQQEIYQELTRLKAAVGELPEKSKQQEIYQELTRLKAAVGELPEKSKQQEIYQELTQLKAAVERLCHPCPWEWTFFQGNCYFMSNSQRNWHDSITACKEVGAQLVVIKSAEEQNFLQLQSSRSNRFTWMGLSDLNQEGTWQWVDGSPLLPSFKQYWNRGEPNNVGEEDCAEFSGNGWNDDKCNLAKFWICKKSAASCSRDEEQFLSPAPATPNPPPA
notes: whole, on cells; also called DC-SIGN; CD209
binding result [7]: binds

B7: Recombinant DC-SIGN (CD209) with human Fc tag (Fc fusion)
chain: QVSKVPSSISQEQSRQDAIYQNLTQLKAAVGELSEKSKLQEIYQELTQLKAAVGELPEKSKLQEIYQELTRLKAAVGELPEKSKLQEIYQELTWLKAAVGELPEKSKMQEIYQELTRLKAAVGELPEKSKQQEIYQELTRLKAAVGELPEKSKQQEIYQELTRLKAAVGELPEKSKQQEIYQELTQLKAAVERLCHPCPWEWTFFQGNCYFMSNSQRNWHDSITACKEVGAQLVVIKSAEEQNFLQLQSSRSNRFTWMGLSDLNQEGTWQWVDGSPLLPSFKQYWNRGEPNNVGEEDCAEFSGNGWNDDKCNLAKFWICKKSAASCSRDEEQFLSPAPATPNPPPA
EC50 (read off the curve) [8]: ~0.8 µg/mL
